Test results reported in the domain aggregation screens of Martell et al. (2025).

experiment: soluble fraction after stress (log2 fold change); higher = more stays soluble; pooled small domains, quantitative proteomics; details: stress: 50 degC
Outline: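 Each library was heated to 50°C as a stress step. The libraries, made up of small protein domains, were pooled and analysed at high throughput by quantitative proteomics. The reported value is the base-two logarithm of the fold change in each protein's soluble amount after stress, taken as a measure of aggregation propensity. The higher the value, the more protein stays in solution.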

Sequence	soluble fraction (log2)
HMEYKKKIGELLIDGNKKLKAANIDTYILDTQLLLGKVLGKDKLYLITNKDEEVSNFKEREFYSLIEKRI	0.00227
HMLKDKLSDKDFDFYKNKIQIQLQGNPTELKELVRRFSSTEEQQILKTIDYMLDNGFLRIDEDNMIYWK	-0.00515
HMNIFKLYEENIGPLTPMIADILKEDEAEFPDYWIREAIEIAVKKNARNWKYVHAVLESWQKE	-3.38
HMKSNIIPLSLKKPQRLDIFLTNYFVDLSRTQIKKMITDGNIKVNDLIAKPSLKLIGDEIIFYTLPK	-1.24
HMTIHVMEIKSLLPIKILDESQHLVQSFSSKNPTSYNYRLIFSDKSKLENIKKTINENKDVESIEIRYA	-0.816
HMVMNKQEFLKILRDTLQSQLSSRETENHVEYYRTYIEEQMREGKTEIEILDVLGDPRLIARTILET	-0.0725
HMNNLLEDIKARLMAQAEAGGHIDTETELAEHFGVTRYRIRKELDLLSQMGLLRRQPKNGIEVLTV	-0.106
HMRTVAERYGLTAGQWRVLELLTQGKTNRQIAEMLDVTEGTVKIHVSAIFKAMKVTNRTQALLLAKKH	-0.558
HMDKVSYALGLGIGRQLTDMGAKDLNIDDFAQAIKDVLAGGEVKLSDAEAQTIVRNFFDEQEKKQRA	-0.0034
HMQLTPAQHAILAYAIEHTGGKIEWFPDNIKGGARTKVLEGLFNKALITRDSTDWFVAAEGYDALGR	-0.549
HMRQVFPNPSSSQIKLASSRIGQAFSILDQQGRVVLSGKVSEEAVIALENLAKGIYVLKIGSWSETILK	-0.903
HMQDTYLYPVQHNGKVRLQVELPAKGLPEDLVRLALAHPKVVEWLNGRIPTKTIAVPGRIINMVLPNQ	-0.134
HMKDGAKYFQLFGLLKNEINRGIYQSGQKIPGENELAEKYGMSRQTVRQALSLLEQESLIERRQGSGTYVR	0.108
HMDDGARQLVDQLNRLIANPAVSARIIHGYLILEGRVESEWEKTRTLLLAQVAGLPVIDLITVS	-1.85
HMADLIIMSSDATEKQVDKVINKIKNMGFNVNISKGTEKTIIGIIGDTRGISDEVFKIMPGVIEVISILRD	-0.39
HMIAWNFDTMKESLSEMERVDYQEFIKAFLSLELSISDRTILNQVYQDYMDEDDLSLISDELRV	0.0819
HMRTIGDSVYEKIKYDIVHLTLKPGEKLSEASLAEKYGISKAPIRVALRKLQEEGLIVIRPQSGSIVSP	-0.568
HMSGIESIVIPLKGLDFDMISSTLTPQLKQAIKYDKQSDSIILVGTNAKVNIIAKQVNAMVEVYKLKT	-0.444
HMGNASQAARRQRIVDAALELLQDRPYDQIQMRDVAEGAGVALGTLYRYFPSKEQLFAHVLVE	0.027
HMPNPALESARPAFEAFLSRFSDGEAMRGPAWGLWSLLHRKGNAPTASHAAGRDGMGVLAFLRHWQWG	-0.479
HMGSKKAIPYVSGMSETEAQNELEEAGFKVTSSFQYDDSVESGKVISTTPEAGTKAEKGSTVTMLVSQGSN	-0.114
HMKETIIPELLQNELDKNSELNDKFNTFSPYKQREFIEYIITAKQEKTQISRLQKVILMILEGRGLNN	-0.204
HMKLTKPQEVFIQELLKGSSQYEAYLKAYPSKKTWKRNSIDTEASKLFKNAKIKQRYEELLYNIREE	-0.167
HMSDPVKQVAMRILDLREISDYTVDKMAEVLNVPVEEYRKYESGEVDMPISFLVKIGEVFHVDMTELLTG	-0.219
HMEVPMELPRQLRANRERLGLSQEDVAHAIYVSRQTMSSWERGKTYPDVQSLMLLSHLFGISIDELVKGDV	-1.55

Sequence	soluble fraction (log2)
HMQPLGHDLTERELDVLALMVTGMNNSEIADKLVVSRSTIKYHVSNILSKLQATSRTEAVAYALQQNLVH	-0.469
HMGAGFREAIPPALDGERIDRVVSLLAYVSRNRAAGALAAGSVSVDGEVVFQRSRRVREGEELVVTGFERE	-0.97
HMGSNRPLALGDVVRIEGSKTLGTILELNAKDAVVALGALKTTLPLSRIHHASSQESQRLKRQATQAPLR	0.123
HMVSPFQQQIADKVHNEIIAAKFNYDNATNENERLLAQLQAKKARELANQYGLDMSSYGADTTAERS	0.235
HMPVVKIPFILTEGPSSITKVIEIDADEILELKDVFQEDDKLWSINQIEMNDGRYVKHSDASLIVRASALR	0.066
HMGDPYAILGLLPGASMEDVRHAWRRQAAENHPDRMLQRGAPPEFVEIAREKTAAINAAYARIREELSI	-0.303
HMDSLIEYENERSLRRLINENLSDYERTVWWLYYAGADAAHIAEQTGRSKRSAENAITRVRRKLRALITQS	-1.08
HMQIDRLFDIVYTLLRKKSATAAELAERFGVSKRTILRDIETLSVAGIPILTSPGKGGGVSISSSF	-0.881
HMIPRGFSRYYILELLQKKPHTGKEIIDNAIKESGGRWNPSPGLIYPLLGRLLDENLIEETNDGKYK	-1.72
HMEYSNLGEALRRLSEIDLQIILLKYSHGFSIKEISKILDIKEVNLYKRNKRALNKLKKILAEMEVLSN	-0.397
HMSDESRAEIVSSAKRLFQQYGYKKTTVSDIAKAMGKVKSAIYYYFPDKESLLRAVIDEEVG	-0.0483
HMFEYDEIMEQSVPKIAWGSLLTIMKKASSHKEMLWYINETYKNGWSRSMVLNQIAMASYERSLIE	-0.851
HMNKTQLQIEDEVLKPLIAEIFSKSKGRFGARKIRSKLMGLGYTASERRILRLMKELGLSSAG	-0.378
HMADRVFGHIPGVAVGSIFPDRRSLSQTGVHRPTQAGISGNKTDGADSIVVSGGYRDDRDYGDLIIYTG	-0.000463
HMIKDSKAAYKILGVDENATNEEIKKAYRQLVINHHPDKVSHLGEDIQRAANEKLKQINAAYDEIKKQRGF	0.237
HMQVRVERSRDKVVISGVNYYIHPVRKGETVYSIARAYGITTQDLVRENPSAAEGLKEGQSIRIPERLVD	0.0927
HMNIQPAMLNAANGGVAWKERGISMSQIMKRNAHTAEGSQKLWDYAFENFFQKNIDAGNIRDDR	0.0644
HMTPQNAAAVLRYLSSGAIKGVGPSTAQRIVEKFGAESLDIIQNKPEELATIRGISLSKALAVSEEYNKQY	-0.202
HMNPHGVAIIDVRKGKASTLRSLATSVRSLGEWDQLKIPIFNLESLTSLVLWHGLDAIVKEPESLQSNLIL	-0.62
HMTYVSVSNYIGTNVDKAKGELESQGLVVLLEEQKTEDKSQDGMVLKQTIEGGTKVSSGSRITLIYGRYT	0.197
HMNQTPQISYSQFIADVRSGQIKDVNIDSDNRTIVGHKFSGEEFTTFSPGDNKLVDELLNYNVEIKTSP	0.411
HMKDIIVLGAIQAGIKKFDKIQKMTQIEPEELNSILEQLENRGFIQVAEKSGLLGKKIEILVTEKGSNEVD	0.442
HMELADLPSAQIREILAYVYRAPLEKRRDPSIHWLLIAAHKLTLPLLDRLDPADARALGERYGADYP	0.132
HMKRSFGYIRLLPSKRYQASYIGPDSQRHAAPETFTRKMDAEGWLSAERRLIEWDQWTSPEQRAAQARLD	-0.591
HMDNAILQELYDYYKEDPSLSQSELIISMLTRIQEAVGYVSKDVQEEVARLAGVNRGYVAAIIKNLPHL	-0.747

Sequence	soluble fraction (log2)
HMGEVQALIPGLVSKLFVVEGESVKIGQKLIILEAMKMENEIASPINGTIKKIYIKSGDKIDKGSIIMEIT	-0.336
HMPYLVNGFILEVQSDDNNPVGTLKRRYAVAKNKQGVILLEGEKSFSSNDQILINELKFYIQSNDLKA	-2.43
HMSAPTAFSERELELLAGMRRGASNKAMAEQLFISVNTVKYHRANLMRKLGARDRNEALEVAARLG	-0.0071
HMDPTYYFNLYPNPSKDEVSLFTNFTGKINIEILDLAGKSILSDNPISTISLVSLKEGLYLVKVKS	-0.208
HMKMNFNEEEQKLLSEANVLVETNKTYTDDEVKGFSNKIVEHIMTFSKTDIPKVKSKFDPILFKI	-0.244
HMGKREKTKVANRQAILVAARAVFAELGYEAATVRDIIRGTDLASGTFYNYFKSKEEVFDALADDGA	-1.17
HMSDGYETLVNMAKPFLNNSKQITENDITDAVNTVSVMLKKRYDMTDEDIRKAVSELLHFYA	-0.057
HMVNVTEAIDLENGTGKLSGTFNHEPKSAEEIIFLLKIDTNKWKLSQYWNKQMGDHWRVSALISQI	-1.91
HMGKGVDKIMKMADDYSYGKIAGKTVDVMTAKLFQAAYNKAPQKAKDKVDKMNEKQLYIFMMNLWKRF	-0.777
HMFKEVPVPDVKGMTLEEAKLALEKEGFILGKTEEAESTEVAAGKIISQNLEAGKIAKQGTSVNLVVSKGK	0.24
HMEDEAVMQLPLSELKGLSPELLAILNGAGYEKLKDVLDLEREDIERIPGMTPERNEQLVAFLAELTE	0.0689
HMTSPVEDLLDKAIQLYREENFEEAIAKWEEVLALDPSKLEAKFNIEIAQDRIKEKQIQEDLKSS	0.0629
HMHKLTIEEALNYKTPANAGGPYSGKPFRDIYDQRGKAAVISFAKYYLSKATPEDPMVEVYRTLLDGAMEL	-0.875
HMDVQGFVMDLDKPLDKEPIVEGFELKLEDSLTLVAAVNKDKSINSLFDELSKLGIKVKSMRNPP	-0.0252
HMNSHKIIDRLNQMITEKDLSEEMPAITEAFKNNERSAEDLKKYVAENLSKKLNAEEREKFVSLILQYRN	0.039
HMTYPGSIALVNPKHEAFVQHYVATSGSRGQAAKLAGVTTTTARNLLQDVEATARIRYLNAQQFQ	-0.107
HMNSKMTYSELITSMENKEVESVKISSSGDVASVKLKNSKTEKEVKIPSLDSFMTYTEQYLKTGEITLEE	0.175
HMEAEDLRDWVGARGIAYTALRPAGIAVVNGRRVDVVSEGAFVNRDDPVEVVRVEGRRIVVKP	-0.143
HMHPDALTEREREVLSLLADGLSNREIAARLVLALGTVKWYISVIYSKLGVTRRTQAIARARELHLV	-0.0971
HMIAGHLQEKKGFFYIVLSYPDAAGKRKTKWFPTKLSVKGNKKKAEVMLMDARKTFVPPETPL	-0.501
HMDVRLAKVYMLPANPYLRFIEFDDGTHGKFRAKPGKFGLGSVVKVKREDGDMYTLEGNYDGKDRL	-0.555
HMKSQSIFNVKKGDTLSHIAVHVLKKNKQKVTPEAINKMVSNIAFRNKIKNPDLIFPGQKLVLEY	0.117
HMTEEPISDGIKKLVEEWENIEGNLIMIFHGIQKHYGYVPRNVAKYVSEAIDVPLTRIYEILTFYNYFTM	0.142
HMPPDVIENIFKNDANKIIDLYNMAPRGQKETIVEMIKNKRLQGINVDANVLVKLGELTGIDFVN	0.0803
HMRRSSQQLTLTEVSTIKEMVTSEEYRHVPTGTLALLAQRLRKVFASSSTWYRLVRIYKWRRPRGRIH	0.549
